In patent US20150307627A1 (BAC IP B V, published 2015):
Each block holds one binder with its values, some of them ahead of it.

Key:
Human IgG [1] = biological target: T1, Human IgG; assay: affinity chromatography, VHH on NHS-Sepharose, 150 cm/h
T1 construct: also called HuIgG; human IgG-Fc domains
Procedure: The dynamic binding capacity (DBC) of the IgG-Fc domain binding VHH fragments immobilized onto NHS sepharose was tested. 10 ml of 1.0 mg/ml human IgG in PBS pH 7.4 was loaded on a 400 μl column with a linear flow of 150 cm/h. After the washing with 10 column volumes PBS pH 7.4, the column was eluted with 0.1 M glycine buffer pH 3.0. Based on integration of the OD280 signal of the flow through and elution peak, the dynamic binding capacity of the column was calculated (Table 11).

HuIgG3 [2] = biological target: T2, HuIgG3 (human, UniProt P01860-1 1-377); assay: SPR, VHH immobilised, 1:1 Langmuir fit
T2 construct: Purified human IgG of subclass 3; also called Human-IgG3
Procedure: (§1) Binding affinity constants of anti IgG-Fc VHH fragments were determined using surface plasmon resonance analysis (SPR) on a BiaCore 3000. For this purpose, purified VHH fragments were immobilised onto the surface of a CM5 sensor chip and subsequently incubated with different concentrations of purified IgG antibodies in HBS-EP buffer. Binding was allowed for 3 minutes at 30 μl/min followed by a dissociation step of 15 minutes at 30 μl/min Binding curves were fitted according to a 1:1 Langmuir binding model using Biacore software.

HuIgG1 [3] = biological target: T3, HuIgG1 (human, UniProt P01857-1 1-330 = IgG part); assay: SPR, VHH immobilised, 1:1 Langmuir fit
T3 construct: Purified human IgG of subclass 1; also called Human-IgG1
Procedure: as §1

Human IgG [4] = biological target: T1, Human IgG; assay: SPR, VHH immobilised, 1:1 Langmuir fit
Procedure: as §1

Bovine IgG [5] = biological target: T4, Bovine IgG; assay: SPR, VHH immobilised, 1:1 Langmuir fit
T4 construct: also called IgG-Fc from bovine
Procedure: as §1

HuIgG4 [6] = biological target: T5, HuIgG4 (human, UniProt P01861-1 1-327 = IgG part); assay: SPR, VHH immobilised, 1:1 Langmuir fit
T5 construct: Purified human IgG of subclass 4; also called Human-IgG4
Procedure: as §1

HuIgG2 [7] = biological target: T6, HuIgG2 (human, UniProt P01859-1 1-326 = IgG part); assay: SPR, VHH immobilised, 1:1 Langmuir fit
T6 construct: Purified human IgG of subclass 2; also called Human-IgG2
Procedure: as §1

Mouse IgG [8] = biological target: T7, Mouse IgG; assay: SPR, VHH immobilised, 1:1 Langmuir fit
T7 construct: also called IgG-Fc from mouse
Procedure: as §1

Mouse IgG 1 = Mouse IgG 1 (mouse, UniProt P01868 1-324 = IgG part); assay: SPR, VHH immobilised, IgG 50 µg/ml
Procedure: (§2) Broad binding reactivity of VHH fragment IgG-Fc-16 was determined using surface plasmon resonance analysis (SPR) on a BiaCore 3000. For this purpose, purified VHH fragment IgG-Fc-16 was immobilised onto the surface of a CM5 sensor chip and subsequently incubated with purified IgG antibodies (50 μg/ml) from different species in HBS-EP buffer. Binding was allowed for 1 minute at 5 μl/min followed by a dissociation step of 2.5 minutes at 5 μl/min. Binding signals (Resonance Units) were compared to background signals measured with HBS-EP buffer only. For comparison, the relative reactivity of Protein A and G towards different IgG species is also given.

Goat IgG = biological target: T8, Goat IgG; assay: SPR, VHH immobilised, IgG 50 µg/ml
T8 construct: also called IgG-Fc from goat
Procedure: as §2

Guinea pig IgG = biological target: T9, Guinea pig IgG; assay: SPR, VHH immobilised, IgG 50 µg/ml
T9 construct: also called Guinea IgG; IgG-Fc from guinea pig
Procedure: as §2

HuIgG3 [9] = biological target: T2, HuIgG3; assay: SPR, VHH immobilised, IgG 50 µg/ml
Procedure: as §2

HuIgG1 [10] = biological target: T3, HuIgG1; assay: SPR, VHH immobilised, IgG 50 µg/ml
Procedure: as §2

Rat IgG2a = Rat IgG2a (rat, UniProt P20760 1-322); assay: SPR, VHH immobilised, IgG 50 µg/ml
Procedure: as §2

Swine IgG = assay: SPR, VHH immobilised, IgG 50 µg/ml
Procedure: as §2

Rat IgG2c = Rat IgG2c (rat, UniProt P20762 1-329); assay: SPR, VHH immobilised, IgG 50 µg/ml
Procedure: as §2

Rat IgG1a = assay: SPR, VHH immobilised, IgG 50 µg/ml
Procedure: as §2

Rat IgG = biological target: T10, Rat IgG; assay: SPR, VHH immobilised, IgG 50 µg/ml
T10 construct: also called IgG-Fc from rat
Procedure: as §2

Sheep IgG = biological target: T11, Sheep IgG; assay: SPR, VHH immobilised, IgG 50 µg/ml
T11 construct: also called IgG-Fc from sheep
Procedure: as §2

Bovine IgG, Fab fragment = assay: SPR, VHH immobilised, IgG 50 µg/ml
Procedure: as §2

Rat IgG2b = Rat IgG2b (rat, UniProt P20761 1-333); assay: SPR, VHH immobilised, IgG 50 µg/ml
Procedure: as §2

Human IgG [11] = biological target: T1, Human IgG; assay: SPR, VHH immobilised, IgG 50 µg/ml
Procedure: as §2

Dog IgG = biological target: T12, Dog IgG; assay: SPR, VHH immobilised, IgG 50 µg/ml
T12 construct: also called IgG-Fc from dog
Procedure: as §2

Newborn Calf IgG = assay: SPR, VHH immobilised, IgG 50 µg/ml
Procedure: as §2

Bovine IgG, Fc fragment = assay: SPR, VHH immobilised, IgG 50 µg/ml
Procedure: as §2

Human IgG, Fc fragment = assay: SPR, VHH immobilised, IgG 50 µg/ml
Procedure: as §2

Mouse IgG2a = Mouse IgG2a (mouse, UniProt P01863 1-330 = IgG part); assay: SPR, VHH immobilised, IgG 50 µg/ml
Procedure: as §2

Human IgG, Fab fragment = assay: SPR, VHH immobilised, IgG 50 µg/ml
Procedure: as §2

Bovine IgG [12] = biological target: T4, Bovine IgG; assay: SPR, VHH immobilised, IgG 50 µg/ml
Procedure: as §2

Syrian Hamster IgG = biological target: T13, Syrian Hamster IgG; assay: SPR, VHH immobilised, IgG 50 µg/ml
T13 construct: also called IgG-Fc from syrian hamster
Procedure: as §2

HuIgG4 [13] = biological target: T5, HuIgG4; assay: SPR, VHH immobilised, IgG 50 µg/ml
Procedure: as §2

Donkey IgG = assay: SPR, VHH immobilised, IgG 50 µg/ml
Procedure: as §2

Foetal Calf IgG = assay: SPR, VHH immobilised, IgG 50 µg/ml
Procedure: as §2

HuIgG2 [14] = biological target: T6, HuIgG2; assay: SPR, VHH immobilised, IgG 50 µg/ml
Procedure: as §2

Rabbit IgG = assay: SPR, VHH immobilised, IgG 50 µg/ml
Procedure: as §2

Cat IgG = biological target: T14, Cat IgG; assay: SPR, VHH immobilised, IgG 50 µg/ml
T14 construct: also called IgG-Fc from cat
Procedure: as §2

Horse IgG = assay: SPR, VHH immobilised, IgG 50 µg/ml
Procedure: as §2

Mouse IgG [15] = biological target: T7, Mouse IgG; assay: SPR, VHH immobilised, IgG 50 µg/ml
Procedure: as §2

Human IgG [16] = biological target: T1, Human IgG; assay: method not given
Procedure: as §1

T3 sequence (P01857 other isoform, or with tags, fused parts or gaps): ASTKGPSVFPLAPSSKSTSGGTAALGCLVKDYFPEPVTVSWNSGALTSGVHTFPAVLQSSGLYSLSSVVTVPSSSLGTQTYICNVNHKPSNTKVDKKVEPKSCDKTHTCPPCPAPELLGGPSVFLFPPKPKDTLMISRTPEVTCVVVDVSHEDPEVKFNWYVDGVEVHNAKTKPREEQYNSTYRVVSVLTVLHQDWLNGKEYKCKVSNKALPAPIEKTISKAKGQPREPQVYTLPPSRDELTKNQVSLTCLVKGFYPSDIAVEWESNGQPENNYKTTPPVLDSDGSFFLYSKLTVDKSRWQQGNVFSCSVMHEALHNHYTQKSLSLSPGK
T2 sequence (P01860 other isoform, or with tags, fused parts or gaps): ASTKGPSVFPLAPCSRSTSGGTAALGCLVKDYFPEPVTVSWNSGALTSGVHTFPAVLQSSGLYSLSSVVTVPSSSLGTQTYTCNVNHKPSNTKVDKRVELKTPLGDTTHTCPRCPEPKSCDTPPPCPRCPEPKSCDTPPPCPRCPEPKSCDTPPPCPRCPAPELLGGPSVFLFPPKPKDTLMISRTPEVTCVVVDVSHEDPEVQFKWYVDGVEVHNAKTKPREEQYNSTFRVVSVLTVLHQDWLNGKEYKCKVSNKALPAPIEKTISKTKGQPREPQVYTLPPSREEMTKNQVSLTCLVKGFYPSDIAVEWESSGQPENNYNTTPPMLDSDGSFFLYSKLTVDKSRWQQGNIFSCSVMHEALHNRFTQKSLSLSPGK
T6 sequence (P01859 other isoform, or with tags, fused parts or gaps): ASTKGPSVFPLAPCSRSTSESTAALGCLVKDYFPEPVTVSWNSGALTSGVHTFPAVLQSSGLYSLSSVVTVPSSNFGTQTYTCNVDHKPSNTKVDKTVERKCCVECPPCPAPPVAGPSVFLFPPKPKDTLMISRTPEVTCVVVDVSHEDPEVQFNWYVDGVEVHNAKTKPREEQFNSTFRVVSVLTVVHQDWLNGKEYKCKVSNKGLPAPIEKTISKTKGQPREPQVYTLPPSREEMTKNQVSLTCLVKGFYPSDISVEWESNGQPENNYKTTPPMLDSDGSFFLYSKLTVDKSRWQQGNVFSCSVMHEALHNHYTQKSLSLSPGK
T5 sequence (P01861 other isoform, or with tags, fused parts or gaps): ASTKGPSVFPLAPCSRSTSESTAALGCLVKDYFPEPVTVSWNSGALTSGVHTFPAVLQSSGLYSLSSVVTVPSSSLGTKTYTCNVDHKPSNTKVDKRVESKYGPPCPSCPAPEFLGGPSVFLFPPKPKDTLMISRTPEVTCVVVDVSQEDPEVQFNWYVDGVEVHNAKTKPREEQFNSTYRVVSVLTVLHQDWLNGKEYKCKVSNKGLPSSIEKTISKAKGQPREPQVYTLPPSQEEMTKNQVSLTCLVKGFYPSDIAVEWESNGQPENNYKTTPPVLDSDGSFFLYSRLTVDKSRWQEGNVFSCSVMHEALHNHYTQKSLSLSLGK
Sequence of Rat IgG2a (P20760 whole entry): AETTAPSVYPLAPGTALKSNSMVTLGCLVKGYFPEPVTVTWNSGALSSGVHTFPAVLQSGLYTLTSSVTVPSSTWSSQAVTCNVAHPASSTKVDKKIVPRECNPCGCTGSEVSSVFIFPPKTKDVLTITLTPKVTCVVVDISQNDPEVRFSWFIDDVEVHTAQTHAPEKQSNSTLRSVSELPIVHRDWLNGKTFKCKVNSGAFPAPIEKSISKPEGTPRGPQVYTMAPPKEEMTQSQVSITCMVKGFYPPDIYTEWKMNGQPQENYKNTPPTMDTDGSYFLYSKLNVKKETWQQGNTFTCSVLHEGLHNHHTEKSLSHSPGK
Sequence of Rat IgG2c (P20762 whole entry): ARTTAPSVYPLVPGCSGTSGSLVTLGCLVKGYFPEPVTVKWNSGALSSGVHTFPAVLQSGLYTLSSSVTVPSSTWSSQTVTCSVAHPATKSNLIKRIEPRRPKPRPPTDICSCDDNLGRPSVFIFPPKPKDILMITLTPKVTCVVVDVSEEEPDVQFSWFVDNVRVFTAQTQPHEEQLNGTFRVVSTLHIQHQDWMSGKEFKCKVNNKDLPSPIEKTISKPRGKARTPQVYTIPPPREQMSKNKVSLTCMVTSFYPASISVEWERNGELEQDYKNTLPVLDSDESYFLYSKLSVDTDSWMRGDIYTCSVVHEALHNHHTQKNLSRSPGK
Sequence of Rat IgG2b (P20761 whole entry): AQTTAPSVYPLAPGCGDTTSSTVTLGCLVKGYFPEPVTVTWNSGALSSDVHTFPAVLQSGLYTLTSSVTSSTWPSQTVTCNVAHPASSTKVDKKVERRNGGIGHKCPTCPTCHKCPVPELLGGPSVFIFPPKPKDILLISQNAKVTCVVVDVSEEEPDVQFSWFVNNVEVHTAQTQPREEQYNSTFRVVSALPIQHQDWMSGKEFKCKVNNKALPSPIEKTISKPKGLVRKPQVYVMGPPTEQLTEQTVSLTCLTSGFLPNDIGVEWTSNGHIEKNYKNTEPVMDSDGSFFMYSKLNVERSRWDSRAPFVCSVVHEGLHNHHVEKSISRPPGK
Sequence of Mouse IgG2a (P01863 whole entry): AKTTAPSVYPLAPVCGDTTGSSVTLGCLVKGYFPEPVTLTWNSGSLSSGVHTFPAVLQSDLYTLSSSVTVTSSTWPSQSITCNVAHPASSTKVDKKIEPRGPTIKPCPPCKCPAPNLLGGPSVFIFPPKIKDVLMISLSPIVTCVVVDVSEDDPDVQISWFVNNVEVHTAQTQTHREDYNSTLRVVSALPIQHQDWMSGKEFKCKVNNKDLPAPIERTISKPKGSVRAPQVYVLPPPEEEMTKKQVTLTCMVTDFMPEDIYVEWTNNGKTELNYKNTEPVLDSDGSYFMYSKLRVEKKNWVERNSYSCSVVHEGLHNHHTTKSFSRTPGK

Dynamic binding capacity (Human IgG [1]): 11.5 mg human IgG/ml matrix | Ka (HuIgG3 [2]): 4.69e+07 M⁻¹ | Kd (HuIgG3 [2]): 21.3 nM | koff (HuIgG3 [2]): 0.000849 s⁻¹ | kon (HuIgG3 [2]): 39800 M⁻¹ s⁻¹ | Ka (HuIgG1 [3]): 1.47e+08 M⁻¹ | Kd (HuIgG1 [3]): 6.81 nM | koff (HuIgG1 [3]): 0.000211 s⁻¹ | kon (HuIgG1 [3]): 31000 M⁻¹ s⁻¹ | Ka (Human IgG [4]): 7.65e+07 M⁻¹ | Kd (Human IgG [4]): 13.1 nM | koff (Human IgG [4]): 0.000462 s⁻¹ | kon (Human IgG [4]): 35300 M⁻¹ s⁻¹ | Ka (Bovine IgG [5]): 3.59e+08 M⁻¹ | Kd (Bovine IgG [5]): 2.79 nM | koff (Bovine IgG [5]): 0.000386 s⁻¹ | kon (Bovine IgG [5]): 138000 M⁻¹ s⁻¹ | Ka (HuIgG4 [6]): 5.89e+08 M⁻¹ | Kd (HuIgG4 [6]): 1.7 nM | koff (HuIgG4 [6]): 0.000107 s⁻¹ | kon (HuIgG4 [6]): 62900 M⁻¹ s⁻¹ | Ka (HuIgG2 [7]): 6.17e+07 M⁻¹ | Kd (HuIgG2 [7]): 16.2 nM | koff (HuIgG2 [7]): 0.000355 s⁻¹ | kon (HuIgG2 [7]): 21900 M⁻¹ s⁻¹ | Ka (Mouse IgG [8]): 1.19e+08 M⁻¹ | Kd (Mouse IgG [8]): 8.41 nM | koff (Mouse IgG [8]): 0.000198 s⁻¹ | kon (Mouse IgG [8]): 23500 M⁻¹ s⁻¹ | Binding signal (RU) (Mouse IgG 1): 1610 RU | Binding signal (RU) (Goat IgG): 257 RU | Binding signal (RU) (Guinea pig IgG): 577 RU | Binding signal (RU) (HuIgG3 [9]): 499 RU | Binding signal (RU) (HuIgG1 [10]): 1570 RU | Binding signal (RU) (Rat IgG2a): 444 RU | Binding signal (RU) (Swine IgG): 811 RU | Binding signal (RU) (Rat IgG2c): 2130 RU | Binding signal (RU) (Rat IgG1a): 431 RU | Binding signal (RU) (Rat IgG): 108 RU | Binding signal (RU) (Sheep IgG): 846 RU | Binding signal (RU) (Bovine IgG, Fab fragment): -1.7 RU | Binding signal (RU) (Rat IgG2b): 512 RU | Binding signal (RU) (Human IgG [11]): 1110 RU | Binding signal (RU) (Dog IgG): 490 RU | Binding signal (RU) (Newborn Calf IgG): 239 RU | Binding signal (RU) (Bovine IgG, Fc fragment): 172 RU | Binding signal (RU) (Human IgG, Fc fragment): 807 RU | Binding signal (RU) (Mouse IgG2a): 427 RU | Binding signal (RU) (Human IgG, Fab fragment): -2.8 RU | Binding signal (RU) (Bovine IgG [12]): 309 RU | Binding signal (RU) (Syrian Hamster IgG): 670 RU | Binding signal (RU) (HuIgG4 [13]): 710 RU | Binding signal (RU) (Donkey IgG): 638 RU | Binding signal (RU) (Foetal Calf IgG): 260 RU | Binding signal (RU) (HuIgG2 [14]): 795 RU | Binding signal (RU) (Rabbit IgG): 800 RU | Binding signal (RU) (Cat IgG): 410 RU | Binding signal (RU) (Horse IgG): 430 RU | Binding signal (RU) (Mouse IgG [15]): 468 RU
B1: IgG-Fc-16 (VHH)
VHH: QVQLQESGGGLVQAGGSLRLSCAASGRAVGNYIIGWFRQAPGKEREFVATTTRDGGSTFYADSVKGRFTISRDNAKNTVNLQMNSLEPEDTAVYYCAAKSWSVPLRPTSADFDSWGQGTQVTVSS
notes: also called VHH fragment IgG-Fc-16

Dynamic binding capacity (Human IgG [1]): 16.7 mg human IgG/ml matrix | Ka (HuIgG3 [2]): 1.11e+08 M⁻¹ | Kd (HuIgG3 [2]): 8.99 nM | koff (HuIgG3 [2]): 0.0014 s⁻¹ | kon (HuIgG3 [2]): 156000 M⁻¹ s⁻¹ | Ka (HuIgG1 [3]): 3.81e+08 M⁻¹ | Kd (HuIgG1 [3]): 2.62 nM | koff (HuIgG1 [3]): 0.000654 s⁻¹ | kon (HuIgG1 [3]): 249000 M⁻¹ s⁻¹ | Ka (Human IgG [4]): 3.07e+08 M⁻¹ | Kd (Human IgG [4]): 3.25 nM | koff (Human IgG [4]): 0.00129 s⁻¹ | kon (Human IgG [4]): 396000 M⁻¹ s⁻¹ | Ka (HuIgG4 [6]): 8.16e+07 M⁻¹ | Kd (HuIgG4 [6]): 12.3 nM | koff (HuIgG4 [6]): 0.00123 s⁻¹ | kon (HuIgG4 [6]): 100000 M⁻¹ s⁻¹ | Ka (HuIgG2 [7]): 1.37e+08 M⁻¹ | Kd (HuIgG2 [7]): 7.29 nM | koff (HuIgG2 [7]): 0.000889 s⁻¹ | kon (HuIgG2 [7]): 122000 M⁻¹ s⁻¹ | Ka (Human IgG [16]): ≥ 4e+09 M⁻¹
B2: IgG-Fc-10 (VHH)
VHH: QVQLQESGGGLVQAGDSLRISCRASGLTVNDLYMGWFRQAPGKEREFVGRVTPGDNTDYTYYVDSVKGRFTISRDSAKNTVYLQMNSLKLEDTAVYLCAGRRFGSSEWDYWGQGTQVTVSS
